From patent US20210301029A1 (LYVGEN BIOPHARMA, published 2021)

How the values were obtained:
human FcγRIIB = molecular target: T1, human FcγRIIB (human, UniProt P31994 43-310); assay: FACS on CHO cells expressing human FcγRIIB (MFI)
T1 construct: whole, on cells; also called CD32b; FcγR2B
T1 sequence (looked up): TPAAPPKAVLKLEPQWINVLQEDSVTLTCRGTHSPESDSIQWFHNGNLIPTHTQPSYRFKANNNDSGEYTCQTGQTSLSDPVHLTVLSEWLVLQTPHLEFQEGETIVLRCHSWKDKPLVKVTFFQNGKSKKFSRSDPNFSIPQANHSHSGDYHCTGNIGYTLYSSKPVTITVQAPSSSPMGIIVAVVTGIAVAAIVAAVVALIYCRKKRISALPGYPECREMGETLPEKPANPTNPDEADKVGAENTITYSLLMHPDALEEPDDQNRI
Experimental: (§1) For FACS analysis of the IgG mutants' binding to different FcγRs, FcγR overexpressing CHO cells were harvested using trypsin-EDTA and were suspended in cold staining buffer (3% BSA in PBS). Test IgG mutants, which were diluted in staining buffer, were added into the cells. The mixture was incubated at 4° C. for 2 hours, and then washed twice with cold staining buffer and re-suspended in PE-labeled anti-human IgG followed by incubation at 4° C. for 2 hours. The mixture was washed twice with staining buffer and re-suspended in 2% PFA in PBS for FACS.

human FcγRIII = molecular target: T2, human FcγRIII (human, UniProt P08637 17-254); assay: FACS on CHO cells expressing human FcγRIIIA (MFI)
T2 construct: whole, on cells; also called FcγRIIIA; CD16a
T2 sequence (P08637 17-254): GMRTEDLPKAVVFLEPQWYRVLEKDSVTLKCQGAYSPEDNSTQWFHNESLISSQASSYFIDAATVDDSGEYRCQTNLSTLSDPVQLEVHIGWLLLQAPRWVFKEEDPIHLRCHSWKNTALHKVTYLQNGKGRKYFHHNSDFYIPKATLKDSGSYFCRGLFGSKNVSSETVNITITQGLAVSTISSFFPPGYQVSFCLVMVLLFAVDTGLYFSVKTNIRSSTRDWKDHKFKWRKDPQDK
Experimental: as §1

human FcγRI = molecular target: T3, human FcγRI (human, UniProt P12314 16-374); assay: FACS on CHO cells expressing human FcγRI (MFI)
T3 construct: whole, on cells; also called CD64
T3 sequence (P12314 16-374): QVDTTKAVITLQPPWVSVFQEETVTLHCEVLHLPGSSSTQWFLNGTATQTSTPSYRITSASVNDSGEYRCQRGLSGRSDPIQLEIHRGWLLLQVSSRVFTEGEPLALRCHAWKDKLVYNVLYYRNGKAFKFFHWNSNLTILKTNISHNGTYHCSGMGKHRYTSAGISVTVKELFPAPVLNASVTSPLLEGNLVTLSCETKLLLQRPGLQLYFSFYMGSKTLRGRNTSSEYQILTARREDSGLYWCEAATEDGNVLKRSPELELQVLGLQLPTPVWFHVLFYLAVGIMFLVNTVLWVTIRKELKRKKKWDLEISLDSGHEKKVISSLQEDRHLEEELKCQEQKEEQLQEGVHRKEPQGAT
Experimental: as §1

B1: 383-huIgG1m2 (antibody)
heavy: not shown
light: DIQMTQSPSSVSASVGDRVTITCRASQGIYSWLAWYQQKPGKAPNLLIYTASTLQSGVPSRFSGSGSGTDFTLTISSLQPEDFATYYCQQANIFPLTFGGGTKVEIKRTVAAPSVFIFPPSDEQLKSGTASVVCLLNNFYPREAKVQWKVDNALQSGNSQESVTEQDSKDSTYSLSSTLTLSKADYEKHKVYACEVTHQGLSSPVTKSFNRGEC
notes: also called 383-G1m2
binding result (human FcγRIIB): binds

B2: 383-huIgG4m2 (antibody)
heavy: not shown
light: DIQMTQSPSSVSASVGDRVTITCRASQGIYSWLAWYQQKPGKAPNLLIYTASTLQSGVPSRFSGSGSGTDFTLTISSLQPEDFATYYCQQANIFPLTFGGGTKVEIKRTVAAPSVFIFPPSDEQLKSGTASVVCLLNNFYPREAKVQWKVDNALQSGNSQESVTEQDSKDSTYSLSSTLTLSKADYEKHKVYACEVTHQGLSSPVTKSFNRGEC
binding result (human FcγRIIB): binds | binding result (human FcγRIII): no binding (tested: 30 µg/mL)

B3: 383-huIgG4mAA (antibody)
heavy: not shown
light: DIQMTQSPSSVSASVGDRVTITCRASQGIYSWLAWYQQKPGKAPNLLIYTASTLQSGVPSRFSGSGSGTDFTLTISSLQPEDFATYYCQQANIFPLTFGGGTKVEIKRTVAAPSVFIFPPSDEQLKSGTASVVCLLNNFYPREAKVQWKVDNALQSGNSQESVTEQDSKDSTYSLSSTLTLSKADYEKHKVYACEVTHQGLSSPVTKSFNRGEC
binding result (human FcγRI): binds | binding result (human FcγRIIB): binds

B4: 383-huIgG1 (antibody)
heavy chain: not shown
light chain: DIQMTQSPSSVSASVGDRVTITCRASQGIYSWLAWYQQKPGKAPNLLIYTASTLQSGVPSRFSGSGSGTDFTLTISSLQPEDFATYYCQQANIFPLTFGGGTKVEIKRTVAAPSVFIFPPSDEQLKSGTASVVCLLNNFYPREAKVQWKVDNALQSGNSQESVTEQDSKDSTYSLSSTLTLSKADYEKHKVYACEVTHQGLSSPVTKSFNRGEC
notes: anti-CD40 antibody 383 on a wild-type human IgG1 constant region
binding result (human FcγRI): binds | binding result (human FcγRIIB): binds

B5: 383-huIgG2m19 (antibody)
heavy: not shown
light: DIQMTQSPSSVSASVGDRVTITCRASQGIYSWLAWYQQKPGKAPNLLIYTASTLQSGVPSRFSGSGSGTDFTLTISSLQPEDFATYYCQQANIFPLTFGGGTKVEIKRTVAAPSVFIFPPSDEQLKSGTASVVCLLNNFYPREAKVQWKVDNALQSGNSQESVTEQDSKDSTYSLSSTLTLSKADYEKHKVYACEVTHQGLSSPVTKSFNRGEC
binding result (human FcγRI): no binding (tested: 30 µg/mL) | binding result (human FcγRIIB): binds | binding result (human FcγRIII): no binding (tested: 30 µg/mL)

B6: 383-huIgG1m27 (antibody)
heavy: not shown
light: DIQMTQSPSSVSASVGDRVTITCRASQGIYSWLAWYQQKPGKAPNLLIYTASTLQSGVPSRFSGSGSGTDFTLTISSLQPEDFATYYCQQANIFPLTFGGGTKVEIKRTVAAPSVFIFPPSDEQLKSGTASVVCLLNNFYPREAKVQWKVDNALQSGNSQESVTEQDSKDSTYSLSSTLTLSKADYEKHKVYACEVTHQGLSSPVTKSFNRGEC
binding result (human FcγRIIB): binds

B7: 383-huIgG2m43 (antibody)
heavy: not shown
light: DIQMTQSPSSVSASVGDRVTITCRASQGIYSWLAWYQQKPGKAPNLLIYTASTLQSGVPSRFSGSGSGTDFTLTISSLQPEDFATYYCQQANIFPLTFGGGTKVEIKRTVAAPSVFIFPPSDEQLKSGTASVVCLLNNFYPREAKVQWKVDNALQSGNSQESVTEQDSKDSTYSLSSTLTLSKADYEKHKVYACEVTHQGLSSPVTKSFNRGEC
binding result (human FcγRI): no binding (tested: 30 µg/mL) | binding result (human FcγRIII): no binding (tested: 30 µg/mL)

B8: 383-huIgG4mPE (antibody)
heavy: not shown
light: DIQMTQSPSSVSASVGDRVTITCRASQGIYSWLAWYQQKPGKAPNLLIYTASTLQSGVPSRFSGSGSGTDFTLTISSLQPEDFATYYCQQANIFPLTFGGGTKVEIKRTVAAPSVFIFPPSDEQLKSGTASVVCLLNNFYPREAKVQWKVDNALQSGNSQESVTEQDSKDSTYSLSSTLTLSKADYEKHKVYACEVTHQGLSSPVTKSFNRGEC
binding result (human FcγRI): binds | binding result (human FcγRIIB): binds

B9: 383-huIgG4m40 (antibody)
heavy: not shown
light: DIQMTQSPSSVSASVGDRVTITCRASQGIYSWLAWYQQKPGKAPNLLIYTASTLQSGVPSRFSGSGSGTDFTLTISSLQPEDFATYYCQQANIFPLTFGGGTKVEIKRTVAAPSVFIFPPSDEQLKSGTASVVCLLNNFYPREAKVQWKVDNALQSGNSQESVTEQDSKDSTYSLSSTLTLSKADYEKHKVYACEVTHQGLSSPVTKSFNRGEC
binding result (human FcγRIIB): no binding (tested: 30 µg/mL) | binding result (human FcγRIII): no binding (tested: 30 µg/mL)

B10: 383-huIgG1m45 (antibody)
heavy: not shown
light: DIQMTQSPSSVSASVGDRVTITCRASQGIYSWLAWYQQKPGKAPNLLIYTASTLQSGVPSRFSGSGSGTDFTLTISSLQPEDFATYYCQQANIFPLTFGGGTKVEIKRTVAAPSVFIFPPSDEQLKSGTASVVCLLNNFYPREAKVQWKVDNALQSGNSQESVTEQDSKDSTYSLSSTLTLSKADYEKHKVYACEVTHQGLSSPVTKSFNRGEC
binding result (human FcγRI): no binding (tested: 30 µg/mL) | binding result (human FcγRIIB): binds

B11: 383-huIgG1m50 (antibody)
heavy: not shown
light: DIQMTQSPSSVSASVGDRVTITCRASQGIYSWLAWYQQKPGKAPNLLIYTASTLQSGVPSRFSGSGSGTDFTLTISSLQPEDFATYYCQQANIFPLTFGGGTKVEIKRTVAAPSVFIFPPSDEQLKSGTASVVCLLNNFYPREAKVQWKVDNALQSGNSQESVTEQDSKDSTYSLSSTLTLSKADYEKHKVYACEVTHQGLSSPVTKSFNRGEC
binding result (human FcγRI): binds | binding result (human FcγRIIB): binds

B12: 383-huIgG1mAAG (antibody)
heavy: not shown
light: DIQMTQSPSSVSASVGDRVTITCRASQGIYSWLAWYQQKPGKAPNLLIYTASTLQSGVPSRFSGSGSGTDFTLTISSLQPEDFATYYCQQANIFPLTFGGGTKVEIKRTVAAPSVFIFPPSDEQLKSGTASVVCLLNNFYPREAKVQWKVDNALQSGNSQESVTEQDSKDSTYSLSSTLTLSKADYEKHKVYACEVTHQGLSSPVTKSFNRGEC
notes: Anti-CD40 antibody 383 with Fc variant G1mAAG; also called G1mAG
binding result (human FcγRIIB): no binding (tested: 30 µg/mL) | binding result (human FcγRIII): no binding (tested: 30 µg/mL)

B13: 383-huIgG1m49 (antibody)
heavy: not shown
light: DIQMTQSPSSVSASVGDRVTITCRASQGIYSWLAWYQQKPGKAPNLLIYTASTLQSGVPSRFSGSGSGTDFTLTISSLQPEDFATYYCQQANIFPLTFGGGTKVEIKRTVAAPSVFIFPPSDEQLKSGTASVVCLLNNFYPREAKVQWKVDNALQSGNSQESVTEQDSKDSTYSLSSTLTLSKADYEKHKVYACEVTHQGLSSPVTKSFNRGEC
binding result (human FcγRI): binds | binding result (human FcγRIIB): binds

B14: 383-huIgG4m46 (antibody)
heavy: not shown
light: DIQMTQSPSSVSASVGDRVTITCRASQGIYSWLAWYQQKPGKAPNLLIYTASTLQSGVPSRFSGSGSGTDFTLTISSLQPEDFATYYCQQANIFPLTFGGGTKVEIKRTVAAPSVFIFPPSDEQLKSGTASVVCLLNNFYPREAKVQWKVDNALQSGNSQESVTEQDSKDSTYSLSSTLTLSKADYEKHKVYACEVTHQGLSSPVTKSFNRGEC
binding result (human FcγRIIB): binds | binding result (human FcγRIII): no binding (tested: 30 µg/mL)

B15: 383-huIgG2m2040 (antibody)
heavy: not shown
light: DIQMTQSPSSVSASVGDRVTITCRASQGIYSWLAWYQQKPGKAPNLLIYTASTLQSGVPSRFSGSGSGTDFTLTISSLQPEDFATYYCQQANIFPLTFGGGTKVEIKRTVAAPSVFIFPPSDEQLKSGTASVVCLLNNFYPREAKVQWKVDNALQSGNSQESVTEQDSKDSTYSLSSTLTLSKADYEKHKVYACEVTHQGLSSPVTKSFNRGEC
binding result (human FcγRI): no binding (tested: 30 µg/mL) | binding result (human FcγRIII): no binding (tested: 30 µg/mL)

B16: 383-huIgG4m30 (antibody)
heavy: not shown
light: DIQMTQSPSSVSASVGDRVTITCRASQGIYSWLAWYQQKPGKAPNLLIYTASTLQSGVPSRFSGSGSGTDFTLTISSLQPEDFATYYCQQANIFPLTFGGGTKVEIKRTVAAPSVFIFPPSDEQLKSGTASVVCLLNNFYPREAKVQWKVDNALQSGNSQESVTEQDSKDSTYSLSSTLTLSKADYEKHKVYACEVTHQGLSSPVTKSFNRGEC
binding result (human FcγRI): no binding (tested: 30 µg/mL) | binding result (human FcγRIII): no binding (tested: 30 µg/mL)

B17: 383-huIgG1m47 (antibody)
heavy: not shown
light: DIQMTQSPSSVSASVGDRVTITCRASQGIYSWLAWYQQKPGKAPNLLIYTASTLQSGVPSRFSGSGSGTDFTLTISSLQPEDFATYYCQQANIFPLTFGGGTKVEIKRTVAAPSVFIFPPSDEQLKSGTASVVCLLNNFYPREAKVQWKVDNALQSGNSQESVTEQDSKDSTYSLSSTLTLSKADYEKHKVYACEVTHQGLSSPVTKSFNRGEC
binding result (human FcγRI): no binding (tested: 30 µg/mL) | binding result (human FcγRIIB): binds

B18: 383-huIgG1m240 (antibody)
heavy: not shown
light: DIQMTQSPSSVSASVGDRVTITCRASQGIYSWLAWYQQKPGKAPNLLIYTASTLQSGVPSRFSGSGSGTDFTLTISSLQPEDFATYYCQQANIFPLTFGGGTKVEIKRTVAAPSVFIFPPSDEQLKSGTASVVCLLNNFYPREAKVQWKVDNALQSGNSQESVTEQDSKDSTYSLSSTLTLSKADYEKHKVYACEVTHQGLSSPVTKSFNRGEC
binding result (human FcγRI): no binding (tested: 30 µg/mL)
